Assays:
Details in all cases: remark: other sources report otherwise
[1] = target: T1, S. cerevisiae Vps4p (wild type) (S. cerevisiae), P52917; assay: AUC
T1 chain: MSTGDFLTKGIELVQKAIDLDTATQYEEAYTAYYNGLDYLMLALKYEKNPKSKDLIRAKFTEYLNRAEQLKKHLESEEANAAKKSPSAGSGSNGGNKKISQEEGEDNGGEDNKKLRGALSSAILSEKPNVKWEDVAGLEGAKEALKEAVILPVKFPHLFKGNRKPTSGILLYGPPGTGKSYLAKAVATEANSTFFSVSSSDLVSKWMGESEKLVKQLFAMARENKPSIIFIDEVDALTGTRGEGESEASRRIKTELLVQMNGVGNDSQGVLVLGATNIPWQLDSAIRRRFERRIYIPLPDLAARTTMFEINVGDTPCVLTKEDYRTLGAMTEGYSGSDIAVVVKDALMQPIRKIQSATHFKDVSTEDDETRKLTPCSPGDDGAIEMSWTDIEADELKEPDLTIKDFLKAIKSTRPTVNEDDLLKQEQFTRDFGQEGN

[2] = target: T1, S. cerevisiae Vps4p (wild type) (S. …); assay: SEC
[3] = target: T1, S. cerevisiae Vps4p (wild type) (S. …); assay: SEC
[4] = target: T1, S. cerevisiae Vps4p (wild type) (S. …); assay: SEC
[5] = target: T1, S. cerevisiae Vps4p (wild type) (S. …); assay: AUC
[6] = target: T1, S. cerevisiae Vps4p (wild type) (S. …); assay: SEC

- stoichiometry N [1]: 6
- stoichiometry N [2]: 6
- stoichiometry N [3]: 6
- stoichiometry N [4]: 6
- stoichiometry N [5]: 6
- stoichiometry N [6]: 6
B1: S. cerevisiae Vps4p (wild type), P52917 1-437 (enzyme)
chain: MSTGDFLTKGIELVQKAIDLDTATQYEEAYTAYYNGLDYLMLALKYEKNPKSKDLIRAKFTEYLNRAEQLKKHLESEEANAAKKSPSAGSGSNGGNKKISQEEGEDNGGEDNKKLRGALSSAILSEKPNVKWEDVAGLEGAKEALKEAVILPVKFPHLFKGNRKPTSGILLYGPPGTGKSYLAKAVATEANSTFFSVSSSDLVSKWMGESEKLVKQLFAMARENKPSIIFIDEVDALTGTRGEGESEASRRIKTELLVQMNGVGNDSQGVLVLGATNIPWQLDSAIRRRFERRIYIPLPDLAARTTMFEINVGDTPCVLTKEDYRTLGAMTEGYSGSDIAVVVKDALMQPIRKIQSATHFKDVSTEDDETRKLTPCSPGDDGAIEMSWTDIEADELKEPDLTIKDFLKAIKSTRPTVNEDDLLKQEQFTRDFGQEGN
